Experiment [1] addresses T1, AnkG 38–903 (MBD + AI-c + AI-b) (rat, UniProt O70511-1 38-903).
T1 construct: numbers count on: rat AnkG NM_001033984.1 (MBD-UPA); also called extended AnkG MBD; source: E. coli BL21 (DE3), purified (Ni2+-NTA, size exclusion)
T1 sequence (looked up): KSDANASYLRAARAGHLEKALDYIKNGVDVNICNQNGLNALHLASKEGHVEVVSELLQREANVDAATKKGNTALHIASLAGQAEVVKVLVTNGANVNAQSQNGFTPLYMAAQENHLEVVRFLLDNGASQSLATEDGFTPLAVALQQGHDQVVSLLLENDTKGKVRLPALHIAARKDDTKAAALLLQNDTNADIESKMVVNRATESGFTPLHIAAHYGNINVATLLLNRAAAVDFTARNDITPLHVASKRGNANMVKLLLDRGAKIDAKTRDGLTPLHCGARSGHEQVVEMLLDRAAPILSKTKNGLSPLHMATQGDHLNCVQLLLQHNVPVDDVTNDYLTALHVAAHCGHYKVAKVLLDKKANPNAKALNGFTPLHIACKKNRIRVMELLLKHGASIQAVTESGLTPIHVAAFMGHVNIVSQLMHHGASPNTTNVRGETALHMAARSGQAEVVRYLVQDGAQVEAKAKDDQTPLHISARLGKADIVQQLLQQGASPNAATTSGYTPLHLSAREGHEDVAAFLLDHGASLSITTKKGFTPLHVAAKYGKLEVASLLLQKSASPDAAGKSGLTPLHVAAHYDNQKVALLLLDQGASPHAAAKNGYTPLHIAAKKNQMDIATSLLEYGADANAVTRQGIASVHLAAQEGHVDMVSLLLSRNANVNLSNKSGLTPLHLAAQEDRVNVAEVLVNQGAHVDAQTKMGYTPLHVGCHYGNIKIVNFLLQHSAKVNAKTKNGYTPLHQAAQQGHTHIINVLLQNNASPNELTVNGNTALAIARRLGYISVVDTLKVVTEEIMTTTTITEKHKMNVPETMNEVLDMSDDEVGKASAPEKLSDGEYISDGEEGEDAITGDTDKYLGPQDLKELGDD
Put plainly: ITC; VP-ITC MicroCal, 25 °C; proteins in 50 mM Tris-HCl pH 7.8, 1 mM DTT, 1 mM EDTA with 100 mM or 500 mM NaCl as required; who was titrated is not told. Particulars: both partners purified. (ITC needs no label: the signal is the heat of the interaction.)

Experiment [2] addresses T2, AnkB 28–847 (MBD + partial AI-c) (human, UniProt Q01484-2 28-847).
T2 construct: ankyrin-B (AnkB), human 220 kDa isoform, residues 28-847: MBD and a short 20-residue linker; numbers count on: human 220 kDa AnkB NM_020977.3; also called extended MBD with a short 20-residue linker; source: E. coli BL21 (DE3), purified (Ni2+-NTA, size exclusion)
T2 sequence (looked up): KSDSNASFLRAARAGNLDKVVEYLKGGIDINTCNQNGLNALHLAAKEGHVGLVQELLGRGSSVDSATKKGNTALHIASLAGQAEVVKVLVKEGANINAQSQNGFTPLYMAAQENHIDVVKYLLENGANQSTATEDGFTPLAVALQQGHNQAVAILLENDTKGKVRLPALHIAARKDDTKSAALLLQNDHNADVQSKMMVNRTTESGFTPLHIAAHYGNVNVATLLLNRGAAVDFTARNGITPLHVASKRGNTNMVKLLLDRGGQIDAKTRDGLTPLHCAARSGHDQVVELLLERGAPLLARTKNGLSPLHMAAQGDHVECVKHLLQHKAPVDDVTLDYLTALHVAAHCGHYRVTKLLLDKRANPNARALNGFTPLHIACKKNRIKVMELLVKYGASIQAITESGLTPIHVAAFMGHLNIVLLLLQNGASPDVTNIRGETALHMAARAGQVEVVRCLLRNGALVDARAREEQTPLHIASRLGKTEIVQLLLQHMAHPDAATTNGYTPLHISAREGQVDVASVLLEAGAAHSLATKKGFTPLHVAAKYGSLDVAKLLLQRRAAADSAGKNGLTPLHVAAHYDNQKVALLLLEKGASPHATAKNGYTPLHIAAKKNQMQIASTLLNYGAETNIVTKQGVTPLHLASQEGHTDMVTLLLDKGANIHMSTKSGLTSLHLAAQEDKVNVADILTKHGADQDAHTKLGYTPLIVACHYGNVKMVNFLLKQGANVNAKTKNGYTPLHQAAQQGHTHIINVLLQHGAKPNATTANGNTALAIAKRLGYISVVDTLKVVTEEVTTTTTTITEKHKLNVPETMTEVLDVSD
The description is as above. Particulars: both partners purified.

The results in this text go back to paper PMC5779224, “Autoinhibition of ankyrin-B/G membrane target bindings by intrinsically disordered segments from the tail regions” (eLife, 2017).

B1: Nav1.2 (aa 1035–1129) (domain or fragment, mouse, UniProt B1AWN6 1035-1129, looked up)
chain: KALDEIKPLEDLNNKKDSCISNHTTIEIGKDLNYLKDGNGTTSGIGSSVEKYVVDESDYMSFINNPSLTVTVPIAVGESDFENLNTEEFSSESDM
notes: source: E. coli BL21 (DE3), purified (Ni2+-NTA, size exclusion)
For the molecule B1, the binding result in experiment [1] and in experiment [2] was “binds” in each case.
